Read-outs that look alike come from different tables or passages of the source.
Legend:
[1] = molecular target: T1, murine basigin extracellular domain, murine Fc tagged (murine); assay: competitive ELISA on coated murine basigin against biotinylated bispecific antibody
T1 construct: also called mBsg ECD; murine basigin (ELISA antigen)
T1 chain: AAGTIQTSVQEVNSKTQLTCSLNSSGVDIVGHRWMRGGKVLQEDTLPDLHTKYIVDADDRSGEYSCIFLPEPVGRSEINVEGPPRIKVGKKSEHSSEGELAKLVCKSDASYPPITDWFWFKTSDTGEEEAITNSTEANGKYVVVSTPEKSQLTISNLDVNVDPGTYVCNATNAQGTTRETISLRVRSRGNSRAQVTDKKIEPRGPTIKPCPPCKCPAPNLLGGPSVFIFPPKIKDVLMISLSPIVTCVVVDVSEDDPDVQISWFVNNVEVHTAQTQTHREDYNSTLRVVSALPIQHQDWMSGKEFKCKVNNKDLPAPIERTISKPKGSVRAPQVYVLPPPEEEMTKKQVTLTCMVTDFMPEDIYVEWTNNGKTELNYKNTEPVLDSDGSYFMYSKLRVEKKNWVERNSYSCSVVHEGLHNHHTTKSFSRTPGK
Description: Nunc 96-well Maxisorp immunoplates were coated overnight at 4° C. with antigen (2 μg/ml) and blocked for 1 hour at room temperature with blocking buffer PBST. Serial dilutions of bivalent or bispecific antibodies were subsequently added to the plates with a sub-saturating concentration of biotinylated bispecific antibody at room temperature for 1 hour. Plates were washed with wash buffer (PBS with 0.05% Tween 20) and incubated for 30 minutes with horseradish peroxidase (HRP)-conjugated streptavidin, and developed with tetramethylbenzidine (TMB) substrate. Absorbance was measured spectrophotometrically at 650 nm.

[2] = molecular target: T1, murine basigin extracellular domain, …; assay: Biacore; 'Binding affinity (nM)'; form of the antigen not stated
[3] = molecular target: murine basigin extracellular domain, murine Fc tagged (murine); assay: competitive ELISA on coated murine basigin against biotinylated bispecific antibody
murine Glut1 (on cells) = molecular target: T2, murine Glut1 (on cells) (murine, UniProt P17809 1-492); assay: flow cytometry (MFI) on HEK293 cells stably expressing Glut1; bivalent (monospecific) anti-Glut1, not the bispecific anti-Glut1/BACE1
T2 construct: whole, on cells; also called glucose transporter 1; Slc2a1
T2 sequence (looked up): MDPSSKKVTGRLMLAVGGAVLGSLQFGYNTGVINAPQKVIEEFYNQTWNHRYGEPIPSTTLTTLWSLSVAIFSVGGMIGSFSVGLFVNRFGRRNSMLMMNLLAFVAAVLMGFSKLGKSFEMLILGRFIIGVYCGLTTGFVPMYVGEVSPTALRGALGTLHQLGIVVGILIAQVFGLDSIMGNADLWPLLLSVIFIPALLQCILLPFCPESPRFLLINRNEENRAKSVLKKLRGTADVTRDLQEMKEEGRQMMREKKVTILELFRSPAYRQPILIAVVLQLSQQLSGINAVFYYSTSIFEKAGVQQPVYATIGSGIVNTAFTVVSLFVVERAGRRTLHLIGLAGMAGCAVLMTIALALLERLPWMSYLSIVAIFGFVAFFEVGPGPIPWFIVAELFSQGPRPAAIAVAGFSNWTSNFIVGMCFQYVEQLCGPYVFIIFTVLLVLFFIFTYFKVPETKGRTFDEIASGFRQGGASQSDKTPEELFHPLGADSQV
Description: Purified antibodies were screened on 293 cells transfected with the corresponding antigens. Cells were collected from flasks/dishes, washed with phosphate-buffered saline (PBS), and added to 96-well U-bottom plates (BD Falcon 353077, BD, Franklin Lakes, N.J.) at 1,000,000 cells per well. Samples were added to cells (100 μL/well) and incubated at 4° C. for 30-60 minutes. Plates were then centrifuged (1200 rpm, 5 minutes, 4° C.) and washed twice with PBS/1% FBS (200 μl per well). R-Phycoerythrin-conjugated Ziege anti-human IgG Fc (Jackson ImmunoReseach Laboratories Inc. (West Grove, Pa.); 109-116-098; 100 μl diluted in PBS) was then added and the plates incubated at 4° C. (covered) for 30 minutes. After the final wash, the cells were fixed in PBS containing 1% formalin, and read using a FACSCalibur™ flow cytometer (BD Biosciences, San Jose, Calif.). Mean fluorescence intensity (MFI) of each sample was then measured using the FlowJo software (Treestar, Inc., Ashland, Oreg.).

Binder | IC50 [1] [nM] | Kd [2] [nM] | IC50 [3] [nM] | EC50 (murine Glut1 (on cells)) [µg/mL]
anti-Bsg^A (antibody, V domains shown, also called bivalent (monospecific) anti-Bsg^A) VH: EVQLVESGGGLVLPGRSMKLSCAASGFTFRTYYMAWVRQAPTKGLEWVASISIGGDNTYYRDSVMGRFTISRDDAKSTLHLQMDNLRSEDTATYYCVRLRGYFDYWGQGVMVTVSS VL: EIVLTQSPATMPASPGEKVTLTCRASSSIRYIYWYQQKSGTSPKLWIYDTSKLASGVPNRFSGSGSGTSYSLTISSMETEDTATYYCQQGRSYPLTFGSGTKLEIK | 7.1 | 13.5 | 106 | –
anti-Glut1 antibody (antibody, V domains shown, Raised by DNA immunization with hGlut1 cDNA; also called bivalent (monospecific) anti-Glut1) VH: QVQLQQPGSVLVRPGASVKLSCKASGYTFTGSWLHWAKQRPGQGLEWIGEIHPYSGNTNYNERFKGKATLTVDTPSSTAYVDLRSLTFEDSAVYYCAKEGGWFLRIYGMDYWGQGTSVTVSS VL: DIVLTQSPSSLSASLGDTITITCHASQNINVWLSWYQQKPGNIPKLLIYKASNLHSGVPSRFSGSGSGTGFTLTISSLQPEDIATYYCQQGQTFPYTFGGGTRLEIK | – | – | – | 0.6
anti-Bsg^B (antibody, V domains shown, also called bivalent (monospecific) anti-Bsg^B) VH: EVQLVESGGGLVQPGRSLKLSCVASGFTFNNYWMTWIRQAPGKGLEWFASITNTGGSTYYPDSVKGRFTISRDNAQSTLYLQTNSLRPEDTATYYCARRDGSYYPYYWYFDLWGPGTTVTVSS VL: NTVMTQSPTSMFISVGDRVTMNCKASRSVGTNVDWYQQKTGQSPTLLFYGASNRYIGVPDRFTGSGSGTDFTLTISNMQAEDLAVYYCLQYNYNWAFGGGTKLELK | 17.5 | 102 | 127 | –
